According to the supplement of paper PMC9732359:
± gives the uncertainty stated by the source.

Assay: protein stability index of a GFP-peptide fusion (yeast GPS) (PSI 1-4); higher = more stable; sorted into four equal gates, so the index is relative within each strain
Outline: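 Yeast carrying a pooled library were grown to mid-log phase in leucine-free medium. Each library plasmid expresses Cherry and has a tiled 17-residue yeast protein peptide fused downstream of GFP. Cells were sorted into four equal gates by GFP/Cherry ratio, and plasmids from each gate were PCR-amplified, Illumina-sequenced and assigned to strains by barcode. Summing, across gates, the read frequency times the gate number gave each peptide's protein stability index.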

Row | Sequence | protein stability index (doa10∆) | protein stability index (pdr5∆) | protein stability index (san1∆) | protein stability index (ubr1∆)
1 | MSRSLANGIINVKEITE [SMC3] | 2.63 ± 0.092 | 2.8 ± 0.073 | 2.77 ± 0.12 | 2.87 ± 0.064
2 | MSVDIDKKASMIISGSR [ASC1] | 2 ± 0.24 | 1.95 ± 0.12 | 1.71 ± 0.23 | 1.99 ± 0.074
3 | MSVEPVVVIDGKGHLVG [RPL16A] | 3.13 ± 0.15 | 3.42 ± 0.19 | 2.63 ± 0.11 | 3.1 ± 0.089
4 | MSVSDNDQALIKVLLRQ [RET1] | 2.48 ± 0.052 | 2.62 ± 0.069 | 2.71 ± 0.067 | 2.6 ± 0.053
5 | MTAAVTSSNIVLETHES [RPT6] | 2.65 ± 0.094 | 2.78 ± 0.057 | 2.79 ± 0.081 | 2.48 ± 0.059
6 | MTAQQAPKWYPSEDVAA [RPL6B] | 1.77 ± 0.11 | 1.7 ± 0.074 | 1.84 ± 0.091 | 1.71 ± 0.11
7 | MTEDIEQKKTATEVTPQ [RPC19] | 2.8 ± 0.12 | 3.2 ± 0.093 | 3.1 ± 0.098 | 3.28 ± 0.11
8 | MTLLTDSLRKLYVDSES [MTW1] | 1.45 ± 0.078 | 1.79 ± 0.11 | 1.65 ± 0.11 | 1.59 ± 0.077
9 | MTVTFLILAGQVKVKGQ [YCS4] | 2.34 ± 0.083 | 2.27 ± 0.074 | 2.3 ± 0.086 | 1.83 ± 0.057
10 | MVAATKRRKTHIHKHVK [RET1] | 2.96 ± 0.17 | 3.08 ± 0.15 | 2.31 ± 0.2 | 3.09 ± 0.1
11 | MVALISKKRKLVADGVF [RPS3] | – | 1.85 ± 0.18 | 1.53 ± 0.13 | –
12 | MVCETDVPSEDDPTQLV [RPO21] | 3.03 ± 0.069 | 3.24 ± 0.12 | 3.37 ± 0.1 | 2.56 ± 0.11
13 | MVMREETIKSLEDPYKY [CSN9] | 1.62 ± 0.08 | 1.66 ± 0.078 | 1.25 ± 0.2 | 1.73 ± 0.054
14 | MVSTPELKKYMDKKILL [SMX2] | 3.25 ± 0.15 | 3.62 ± 0.12 | 3.26 ± 0.092 | 3 ± 0.074
15 | MYCRPAPSDFSENQRQI [GRR1] | 3.13 ± 0.085 | 2.62 ± 0.084 | 3.02 ± 0.078 | 2.66 ± 0.082
16 | NAASQQPTPRSASNTAK [GAL11] | 2.84 ± 0.082 | 2.68 ± 0.055 | 2.78 ± 0.049 | 2.67 ± 0.039
17 | NAEVVAGNIKCRNDAVN [BRR2] | 2.77 ± 0.11 | 3.67 ± 0.16 | 3.05 ± 0.087 | 2.86 ± 0.14
18 | NAIFLSSEQDYSTLKEL [YCG1] | 2.61 ± 0.078 | 2.6 ± 0.11 | 2.18 ± 0.18 | 2.81 ± 0.094
19 | NANTIETAKMIENMTKE [FAS2] | 2.72 ± 0.073 | 3.35 ± 0.078 | 2.97 ± 0.065 | 3.35 ± 0.095
20 | NAPAWFKLSSESVIEQI [RPS13] | 1.98 ± 0.064 | 1.73 ± 0.054 | 2.34 ± 0.13 | 2.48 ± 0.067
21 | NAPTFNPKYDTSNASMN [YAR002W/NUP60] | 3.01 ± 0.046 | 3.08 ± 0.043 | 2.9 ± 0.036 | 3.17 ± 0.046
22 | NCNIKDFKPPYIYSHVN [SWP82] | 2.73 ± 0.086 | 2.77 ± 0.086 | 2.45 ± 0.11 | 2.91 ± 0.057
23 | NDDFSEVFEFKTFNKIQ [BRR2] | 2.01 ± 0.051 | 2.06 ± 0.061 | 2.24 ± 0.083 | 2.64 ± 0.097
24 | NDDIEWMLSICVEWRLP [YJR042W/NUP85] | 1.64 ± 0.069 | 1.53 ± 0.036 | 1.83 ± 0.11 | 1.9 ± 0.058
25 | NDEVNEDEEDDNISSFH [YCG1] | 3.18 ± 0.12 | 3.28 ± 0.12 | 3.31 ± 0.074 | 3.33 ± 0.12
26 | NDILDELLCGMANKEWR [ECM29] | 2.37 ± 0.14 | 1.47 ± 0.098 | 2.72 ± 0.15 | 1.6 ± 0.061
27 | NDLDYDLIADTITNSSS [YML103C/NUP188] | 2.9 ± 0.061 | 3.06 ± 0.067 | 2.99 ± 0.036 | 3.02 ± 0.048

Row | Sequence | protein stability index (doa10∆) | protein stability index (pdr5∆) | protein stability index (san1∆) | protein stability index (ubr1∆)
28 | NDNYSSDMENDNLLLNL [REC8] | 2.9 ± 0.09 | 2.96 ± 0.12 | 2.82 ± 0.1 | 3.09 ± 0.12
29 | NDRNPRLNENKKIGCYM [CSN12] | 3.04 ± 0.069 | 3.22 ± 0.072 | 3.12 ± 0.051 | 3.26 ± 0.065
30 | NDSSATRSWRPPQAGDR [RPB8] | 3.06 ± 0.26 | – | – | 2.76 ± 0.26
31 | NDTSSGTNAMLPSPESL [SNF5] | 2.73 ± 0.042 | 2.84 ± 0.049 | 2.74 ± 0.035 | 2.8 ± 0.042
32 | NEESTNERLEINQEKPV [SIR4] | 3.31 ± 0.18 | 3.32 ± 0.13 | 3.37 ± 0.092 | 3.36 ± 0.1
33 | NEFQLQWGKYQTFGVDI [SWI1] | 2.98 ± 0.12 | 3.06 ± 0.09 | 3.09 ± 0.067 | 3.26 ± 0.088
34 | NEKIEKRSDLTGANSIY [UBP6] | 2.75 ± 0.086 | 3.01 ± 0.062 | 3.06 ± 0.075 | 3.15 ± 0.068
35 | NEKSQAEQEKAKNIISN [LRP1] | 2.59 ± 0.092 | 2.83 ± 0.12 | 2.86 ± 0.078 | 2.62 ± 0.17
36 | NELERNRKIYQFTLYDR [SMC3] | 1.5 ± 0.23 | 2.45 ± 0.1 | 2.31 ± 0.14 | 2.88 ± 0.1
37 | NELPDIEALYDDDTFSD [RPN2] | 3.12 ± 0.1 | 3.35 ± 0.13 | 3.23 ± 0.12 | 2.98 ± 0.081
38 | NENDKIYLLFQSSGKLK [YDL116W/NUP84] | 2.43 ± 0.049 | 2.5 ± 0.049 | 2.44 ± 0.048 | 2.72 ± 0.034
39 | NENDLKTYNCLHEKYLT [SMC1] | 2.2 ± 0.072 | 2.68 ± 0.053 | 2.11 ± 0.083 | 3.02 ± 0.056
40 | NENPYNNGVSNLWKNIF [COR1] | – | 1.96 ± 0.12 | 2.01 ± 0.15 | 1.86 ± 0.07
41 | NEPLSEIEIEGVMSLLQ [YAR002W/NUP60] | 3.31 ± 0.093 | 3.32 ± 0.14 | 3.22 ± 0.11 | 3.19 ± 0.094
42 | NEPSQSLISTRNDSTVN [BRN1] | 3.16 ± 0.07 | 3.17 ± 0.086 | 3.08 ± 0.071 | 2.82 ± 0.045
43 | NESKIKELNEKIQKLEE [RPN7] | 2.95 ± 0.16 | 2.48 ± 0.11 | 2.26 ± 0.14 | 2.09 ± 0.14
44 | NESWKSSFEKFNDSQAI [SRP72] | 2.96 ± 0.055 | 2.96 ± 0.059 | 2.79 ± 0.043 | 3.02 ± 0.037
45 | NEVKEWAVTLDTSRPDL [DSN1] | 2.96 ± 0.11 | 3.15 ± 0.091 | 3.02 ± 0.052 | 3.15 ± 0.041
46 | NEYVAKVSAREKSAYKF [FAS2] | 3.23 ± 0.082 | 3.16 ± 0.073 | 3.04 ± 0.093 | 3.32 ± 0.061
47 | NFLVFQGDVEQIAAQSP [SMC1] | 2.49 ± 0.1 | 2.51 ± 0.092 | 2.68 ± 0.14 | 2.61 ± 0.094
48 | NFNDIPPSVTLQDWQRE [YDL088C/ASM4] | 2.51 ± 0.078 | 2.31 ± 0.054 | 2.44 ± 0.077 | 3.09 ± 0.053
49 | NFNLKPTKTLTTKERKK [PRP8] | 1.98 ± 0.049 | 2.54 ± 0.074 | 2.19 ± 0.075 | 2.12 ± 0.041
50 | NFNSSAPIADDNHSGDA [DSN1] | 1.92 ± 0.081 | 2.8 ± 0.1 | 2.45 ± 0.09 | 2.68 ± 0.067
51 | NFNSSLHKRQQFSESTH [YJL039C/NUP192] | 3.12 ± 0.12 | 3.14 ± 0.08 | 2.82 ± 0.063 | 3.03 ± 0.061
52 | NFSNVTDLTNNSTDGAK [YIL149C/MLP2] | 2.82 ± 0.041 | 3.15 ± 0.046 | 3.41 ± 0.035 | 2.85 ± 0.034
53 | NGKEVPLAKIYLEENKS [MED1] | 3.2 ± 0.1 | 3.27 ± 0.071 | 3.12 ± 0.075 | 3.21 ± 0.063
